From doi:10.1101/788646 come the findings set out here.

The target of this experiment is SlCGH1, choloylglycine hydrolase homolog Shew_0681 from Shewanella loihica PV-4 (Shewanella loihica PV-4). As to the kind of experiment: SEC + other: MALDI-TOF-MS.

As for “SlCGH1, choloylglycine hydrolase homolog Shew_0681 from Shewanella loihica PV-4 (enzyme)”, the stoichiometry N (usually a count of units in the complex or per binding partner) turned out to be 2.
